We go through 1 substance from US20040192898A1.

For one assay, the target named is Amyloid-beta 1-40 (UniProt P05067). Put plainly: SPR, BIAcore 2000; antibody captured, Aβ flowed over. A general note: Surface plasmon resonance follows binding to a sensor surface in real time, without labels.
For a further assay, the target named is Amyloid-beta 1-42 (UniProt P05067). The description is as above.
Assay [1] concerns the target β-amyloid peptide (1-42) conjugated to BSA (bovine) (UniProt P05067). Put plainly: competition ELISA as in Example 7, against biotinylated Mu266; N=1. On the technique in general: An ELISA detects its analyte on a solid surface through an enzyme-linked reagent.
For assay [2] the target is unchanged. The assay is described as follows: competition ELISA as in Example 7, against biotinylated Mu266; mean, N=3.
For assay [3] the target is unchanged. Put plainly: competition ELISA, BSA-β-amyloid peptide coated, against biotinylated Mu266 (0.6 µg/ml); Exp. I, N56S series.
For assay [4] the target is unchanged. Put plainly: competition ELISA, BSA-β-amyloid peptide coated, against biotinylated Mu266 (0.6 µg/ml); Exp. I, N56T series.
For assay [5] the target is unchanged. Put plainly: competition ELISA, BSA-β-amyloid peptide coated, against biotinylated Mu266 (0.6 µg/ml); Exp. II, N56S series.
Assay [6] shares this target. The assay is described as follows: competition ELISA, BSA-β-amyloid peptide coated, against biotinylated Mu266 (0.6 µg/ml); Exp. II, N56T series.
The target is the same in assay [7]. The assay is described as follows: competition ELISA, BSA-β-amyloid peptide coated, against biotinylated Mu266 (0.6 µg/ml); Exp. III, N56S series.
The target is the same in assay [8]. The assay is described as follows: competition ELISA, BSA-β-amyloid peptide coated, against biotinylated Mu266 (0.6 µg/ml); Exp. III, N56T series.
The target is the same in assay [9]. The assay is described as follows: competition ELISA, Aβ1-42-BSA coated, against biotinylated Mu266 (0.3 µg/ml); mean of three experiments, first set.
The target is the same in assay [10]. Put plainly: competition ELISA, Aβ1-42-BSA coated, against biotinylated Mu266 (0.3 µg/ml); mean of three experiments, second set.
For assay [11] the target is unchanged. Put plainly: competition ELISA, BSA-β-amyloid peptide coated, against biotinylated Mu266 (0.6 µg/ml); average of three, N56S series.
Assay [12] shares this target. Put plainly: competition ELISA, BSA-β-amyloid peptide coated, against biotinylated Mu266 (0.6 µg/ml); average of three, N56T series.

Where “and” joins values, the source holds several entries; their conditions need not be identical. Equal entries are not always repeated.

Turning to Mouse monoclonal antibody 266, the Kd with Amyloid-beta 1-40 and with Amyloid-beta 1-42 was 4 pM throughout. For the same substance, the IC50 in assay [1] is 3.8 µg/mL and 7.1 µg/mL; in [2], 7.6 µg/mL and 14 µg/mL; in assay [3], 3.8 µg/mL; in assay [4] it was 4.3 µg/mL; in assay [5], 4.5 µg/mL; in assay [6], 6.4 µg/mL. Further, the IC50 in assay [7] is 6.1 µg/mL; in [8], 6.4 µg/mL; in assay [9], 4.7 µg/mL; in [10], 3.87 µg/mL; in assay [11] it was 4.8 µg/mL; in [12], 5.7 µg/mL.

By Kd is commonly meant the constant that tells how readily two partners part at equilibrium. A lower Kd goes with higher affinity. What is called IC50 is the midpoint of a concentration-inhibition curve. Read a low IC50 as greater potency in that assay.
